In US20090099029A1, “Methods and substrates for conducting assays” (Invitrogen Corporation, priority 2005, published 2009):

B1: PLK3 (protein)
chain: SGRTYLKGRLLGKGGFARCYEATDTETGSAYAVKVIPQSRVAKPHQREKILNEIELHRDLQHRHIVRFSHHFEDADNIYIFLELCSRKSLAHIWKARHTLLEPEVRYYLRQILSGLKYLHQRGILHRDLKLGNFFITENMELKVGDFGLAARLEPPEQRKKTICGTPNYVAPEVLLRQGHGPEADVWSLGCVMYTLLCGSPPFETADLKETYRCIKQVHYTLPASLSLPARQLLAAILRASPRDRPSIDQILRHDFFTKGYTPDRLPISSCVTVPDLTPPNPA
modifications: left off: a dimerising Fc or GST
B2: PHKG2 (protein)
chain: MTLDVGPEDELPDWAAAKEFYQKYDPKDVIGRGVSSVVRRCVHRATGHEFAVKIMEVTAERLSPEQLEEVREATRRETHILRQVAGHPHIITLIDSYESSSFMFLVFDLMRKGELFDYLTEKVALSEKETRSIMRSLLEAVSFLHANNIVHRDLKPENILLDDNMQIRLSDFGFSCHLEPGEKLRELCGTPGYLAPEILKCSMDETHPGYGKEVDLWACGVILFTLLAGSPPFWHRRQILMLRMIMEGQYQFSSPEWDDRSSTVKDLISRLLQVDPEARLTAEQALQHPFFERCEGSQPWNLTPRQRFRVAVWTVLAAGRVALSTHRVRPLTKNALLRDPYALRSVRHLIDNCAFRLYGHWVKKGEQQNRAALFQHRPPGPFPIMGPEEEGDSAAITEDEAVLVLG
modifications: left off: small tags and cut ends
B3: EPHB1 (protein)
chain: SRKRAYSKEAVYSDKLQHYSTGRGSPGMKIYIDPFTYEDPNEAVREFAKEIDVSFVKIEEVIGAGEFGEVYKGRLKLPGKREIYVAIKTLKAGYSEKQRRDFLSEASIMGQFDHPNIIRLEGVVTKSRPVMIITEFMENGALDSFLRQNDGQFTVIQLVGMLRGIAAGMKYLAEMNYVHRDLAARNILVNSNLVCKVSDFGLSRYLQDDTSDPTYTSSLGGKIPVRWTAPEAIAYRKFTSASDVWSYGIVMWEVMSFGERPYWDMSNQDVINAIEQDYRLPPPMDCPAALHQLMLDCWQKDRNSRPRFAEIVNTLDKMIRNPASLKTVATITAVPSQPLLDRSIPDFTAFTTVDDWLSAIKMVQYRDSFLTAGFTSLQLVTQMTSEDLLRIGITLAGHQKKILNSIHSMRVQISQSPTAMA
modifications: left off: a dimerising Fc or GST
B4: EPHB2 (protein)
chain: CNRRGFERADSEYTDKLQHYTSGHMTPGMKIYIDPFTYEDPNEAVREFAKEIDISCVKIEQVIGAGEFGEVCSGHLKLPGKREIFVAIKTLKSGYTEKQRRDFLSEASIMGQFDHPNVIHLEGVVTKSTPVMIITEFMENGSLDSFLRQNDGQFTVIQLVGMLRGIAAGMKYLADMNYVHRDLAARNILVNSNLVCKVSDFGLSRFLEDDTSDPTYTSALGGKIPIRWTAPEAIQYRKFTSASDVWSYGIVMWEVMSYGERPYWDMTNQDVINAIEQDYRLPPPMDCPSALHQLMLDCWQKDRNHRPKFGQIVNTLDKMIRNPNSLKAMAPLSSGINLPLLDRTIPDYTSFNTVDEWLEAIKMGQYKESFANAGFTSFDVVSQMMMEDILRVGVTLAGHQKKILNSIQVMRAQMNQIQSVEV
modifications: left off: a dimerising Fc or GST
B5: EPHA8 (protein)
chain: KKRHCGYSKAFQDSDEEKMHYQNGQAPPPVFLPLHHPPGKLPEPQFYAEPHTYEEPGRAGRSFTREIEASRIHIEKIIGSGDSGEVCYGRLRVPGQRDVPVAIKALKAGYTERQRRDFLSEASIMGQFDHPNIIRLEGVVTRGRLAMIVTEYMENGSLDTFLRTHDGQFTIMQLVGMLRGVGAGMRYLSDLGYVHRDLAARNVLVDSNLVCKVSDFGLSRVLEDDPDAAYTTTGGKIPIRWTAPEAIAFRTFSSASDVWSFGVVMWEVLAYGERPYWNMTNRDVISSVEEGYRLPAPMGCPHALHQLMLDCWHKDRAQRPRFSQIVSVLDALIRSPESLRATATVSRCPPPAFVRSCFDLRGGSGGGGGLTVGDWLDSIRMGRYRDHFAAGGYSSLGMVLRMNAQDVRALGITLMGHQKKILGSIQTMRAQLTSTQGPRRHL
modifications: left off: a dimerising Fc or GST
B6: PRKCE (protein)
chain: MVVFNGLLKIKICEAVSLKPTAWSLRHAVGPRPQTFLLDPYIALNVDDSRIGQTATKQKTNSPAWHDEFVTDVCNGRKIELAVFHDAPIGYDDFVANCTIQFEELLQNGSRHFEDWIDLEPEGRVYVIIDLSGSSGEAPKDNEERVFRERMRPRKRQGAVRRRVHQVNGHKFMATYLRQPTYCSHCRDFIWGVIGKQGYQCQVCTCVVHKRCHELIITKCAGLKKQETPDQVGSQRFSVNMPHKFGIHNYKVPTFCDHCGSLLWGLLRQGLQCKVCKMNVHRRCETNVAPNCGVDARGIAKVLADLGVTPDKITNSGQRRKKLIAGAESPQPASGSSPSEEDRSKSAPTSPCDQEIKELENNIRKALSFDNRGEEHRAASSPDGQLMSPGENGEVRQGQAKRLGLDEFNFIKVLGKGSFGKVMLAELKGKDEVYAVKVLKKDVILQDDDVDCTMTEKRILALARKHPYLTQLYCCFQTKDRLFFVMEYVNGGDLMFQIQRSRKFDEPRSRFYAAEVTSALMFLHQHGVIYRDLKLDNILLDAEGHCKLADFGMCKEGILNGVTTTTFCGTPDYIAPEILQELEYGPSVDWWALGVLMYEMMAGQPPFEADNEDDLFESILHDDVLYPVWLSKEAVSILKAFMTKNPHKRLGCVASQNGEDAIKQHPFFKEIDWVLLEQKKIKPPFKPRIKTKRDVNNFDQDFTREEPVLTLVDEAIVKQINQEEFKGFSYFGEDLMP
B7: PAK6 (protein)
chain: MFRKKKKKRPEISAPQNFQHRVHTSFDPKEGKFVGLPPQWQNILDTLRRPKPVVDPSRITRVQLQPMKTVVRGSAMPVDGYISGLLNDIQKLSVISSNTLRGRSPTSRRRAQSLGLLGDEHWATDPDMYLQSPQSERTDPHGLYLSCNGGTPAGHKQMPWPEPQSPRVLPNGLAAKAQSLGPAEFQGASQRCLQLGACLQSSPPGASPPTGTNRHGMKAAKHGSEEARPQSCLVGSATGRPGGEGSPSPKTRESSLKRRLFRSMFLSTAATAPPSSSKPGPPPQSKPNSSFRPPQKDNPPSLVAKAQSLPSDQPVGTFSPLTTSDTSSPQKSLRTAPATGQLPGRSSPAGSPRTWHAQISTSNLYLPQDPTVAKGALAGEDTGVVTHEQFKAALRMVVDQGDPRLLLDSYVKIGEGSTGIVCLAREKHSGRQVAVKMMDLRKQQRRELLFNEVVIMRDYQHFNVVEMYKSYLVGEELWVLMEFLQGGALTDIVSQVRLNEEQIATVCEAVLQALAYLHAQGVIHRDIKSDSILLTLDGRVKLSDFGFCAQISKDVPKRKSLVGTPYWMAPEVISRSLYATEVDIWSLGIMVIEMVDGEPPYFSDSPVQAMKRLRDSPPPKLKNSHKVSPVLRDFLERMLVRDPQERATAQELLDHPFLLQTGLPECLVPLIQLYRKQTSTC
modifications: left off: small tags and cut ends
B8: PAK3 (protein)
chain: MSDGLDNEEKPPAPPLRMNSNNRDSSALNHSSKPLPMAPEEKNKKARLRSIFPGGGDKTNKKKEKERPEISLPSDFEHTIHVGFDAVTGEFTGIPEQWARLLQTSNITKLEQKKNPQAVLDVLKFYDSKETVNNQKYMSFTSGDKSAHGYIAAHPSSTKTASEPPLAPPVSEEEDEEEEEEEDENEPPPVIAPRPEHTKSIYTRSVVESIASPAVPNKEVTPPSAENANSSTLYRNTDRQRKKSKMTDEEILEKLRSIVSVGDPKKKYTRFEKIGQGASGTVYTALDIATGQEVAIKQMNLQQQPKKELIINEILVMRENKNPNIVNYLDSYLVGDELWVVMEYLAGGSLTDVVTETCMDEGQIAAVCRECLQALDFLHSNQVIHRDIKSDNILLGMDGSVKLTDFGFCAQITPEQSKRSTMVGTPYWMAPEVVTRKAYGPKVDIWSLGIMAIEMVEGEPPYLNENPLRALYLIATNGTPELQNPERLSAVFRDFLNRCLEMDVDRRGSAKELLQHPFLKLAKPLSSLTPLIIAAKEAIKNSSR
modifications: left off: small tags and cut ends

Test system: kinases of Table 6 on Myelin Basic Protein (MBP)
Assay: Kinase assay using MBP substrate, ProQ Diamond stain (Table 6)
Assay type: biochemical
Conditions: kinase printed on MBP-coated slide; 20 uM ATP, 30° C.; ProQ Diamond Microarray Stain; graded Strong/Weak/Negative
Method in brief: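 Reactions ran at 30° C. with 20 uM ATP, 4 mM MgCl2 and 5% DMSO in HEPES pH 7.5, inhibitor added or omitted. Kinases had been arrayed onto slide-bound dephosphorylated bovine MBP; phospho-signal read after ProQ Diamond staining.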

| Molecule | MBP Kinase Activity |
| --- | --- |
| B1 | Negative |
| B2 | Negative |
| B3 | Strong |
| B4 | Strong |
| B5 | Weak |
| B6 | Strong |
| B7 | Negative |
| B8 | Weak |
